How the values were obtained:
[1] = target: atypical chemokine receptor 3 (human (endogenous in hPPAEC)) (UniProt P25106)
[2] = target: chemokine (C-X-C) motif receptor (CXCR) 4 (human (endogenous in hPPAEC)) (UniProt P61073)
Chain of UniProt P61073 (P61073 whole entry): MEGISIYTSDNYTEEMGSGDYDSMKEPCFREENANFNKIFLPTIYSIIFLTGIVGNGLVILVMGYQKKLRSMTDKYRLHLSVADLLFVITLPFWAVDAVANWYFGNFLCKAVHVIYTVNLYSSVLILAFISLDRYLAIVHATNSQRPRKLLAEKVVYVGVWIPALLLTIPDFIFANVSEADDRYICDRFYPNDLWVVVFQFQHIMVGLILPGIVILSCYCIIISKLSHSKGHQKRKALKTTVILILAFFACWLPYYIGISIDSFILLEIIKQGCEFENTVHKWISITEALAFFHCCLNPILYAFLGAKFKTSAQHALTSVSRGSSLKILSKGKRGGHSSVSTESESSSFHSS

Chain of UniProt P25106 (P25106 whole entry): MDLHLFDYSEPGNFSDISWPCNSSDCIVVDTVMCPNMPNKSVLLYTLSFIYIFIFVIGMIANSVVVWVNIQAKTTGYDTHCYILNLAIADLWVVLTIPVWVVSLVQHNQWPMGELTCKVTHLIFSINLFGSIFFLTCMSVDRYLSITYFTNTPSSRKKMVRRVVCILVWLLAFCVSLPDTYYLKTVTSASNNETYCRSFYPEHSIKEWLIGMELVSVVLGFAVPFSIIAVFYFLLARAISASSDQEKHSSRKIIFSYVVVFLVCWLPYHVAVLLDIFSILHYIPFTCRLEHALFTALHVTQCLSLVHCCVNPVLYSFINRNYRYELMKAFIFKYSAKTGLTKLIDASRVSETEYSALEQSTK

Row | Substance | EC50 of β-arrestin 2 recruitment to ACKR3, Presto-Tango (Tango plasmid in HTLA cells) [1] | efficacy (top plateau) of β-arrestin 2 recruitment to ACKR3, Presto-Tango, % of CXCL12α [1] | EC50 of β-arrestin 2 recruitment to CXCR4, Presto-Tango (Tango plasmid in HTLA cells) [2] | efficacy (top plateau) of β-arrestin 2 recruitment to CXCR4, Presto-Tango, % of CXCL12α [2]
1 | N-terminal truncated CXCL12 (3–68) (from UniProt P48061-2 24-89) (domain or fragment) | 13.3 nM | 19% | > 1000 nM | 
2 | CXCL12_(1), engineered constitutively monomeric CXCL12 variant (from UniProt P48061-2 22-89) (ligand) | 5.6 nM | 98% | 27 nM | 103%
3 | CXCL12 S-S4V, a protease resistant mutant (from UniProt P48061-2 22-89) (ligand) | 0.7 nM | 88% | 75 nM | 117%

Now from value to substance:

Row | EC50 of β-arrestin 2 recruitment to ACKR3, Presto-Tango (Tango plasmid in HTLA cells) [1] | efficacy (top plateau) of β-arrestin 2 recruitment to ACKR3, Presto-Tango, % of CXCL12α [1] | EC50 of β-arrestin 2 recruitment to CXCR4, Presto-Tango (Tango plasmid in HTLA cells) [2] | efficacy (top plateau) of β-arrestin 2 recruitment to CXCR4, Presto-Tango, % of CXCL12α [2] | Substance
4 | 0.4 nM | 86% | 127 nM | 105% | CXCL12 R47E (from UniProt P48061-2 22-89) (ligand)
5 | 8.8 nM | 87% | 2.4 nM | 90% | CXCL12_(2), disulfide-locked dimeric CXCL12 variant (from UniProt P48061-2 22-89) (ligand)
6 | 1.2 nM | 83% | 145 nM | 111% | CXCL12 K27A/R41A/R47A (from UniProt P48061-2 22-89) (ligand)
7 | 1.5 nM | 103% | 1.4 nM | 73% | CXCL12β (from UniProt P48061 22-93) (ligand)
